Results on two molecules are retold here after publication PMC6377630, “NapM enhances the survival of Mycobacterium tuberculosis under stress and in macrophages” (Communications Biology, 2019).

For assay [1], the target named is DnaA (M. tuberculosis H37Ra) (UniProt P9WNW3). Kind of assay: SPR; DnaA immobilised on CM5 chip (5.7 μM), NapM proteins passed over; Biacore 3000; 10 mM HEPES, 150 mM NaCl, 3 mM EDTA, 0.01% surfactant P20, pH 7.4; 25 °C. A general note: SPR reads the build-up and loss of mass on a sensor chip optically.
The target in another assay is T1, DnaA (M. tuberculosis H37Ra, UniProt P9WNW3 1-507).
T1 construct: also called DnaA protein
T1 sequence: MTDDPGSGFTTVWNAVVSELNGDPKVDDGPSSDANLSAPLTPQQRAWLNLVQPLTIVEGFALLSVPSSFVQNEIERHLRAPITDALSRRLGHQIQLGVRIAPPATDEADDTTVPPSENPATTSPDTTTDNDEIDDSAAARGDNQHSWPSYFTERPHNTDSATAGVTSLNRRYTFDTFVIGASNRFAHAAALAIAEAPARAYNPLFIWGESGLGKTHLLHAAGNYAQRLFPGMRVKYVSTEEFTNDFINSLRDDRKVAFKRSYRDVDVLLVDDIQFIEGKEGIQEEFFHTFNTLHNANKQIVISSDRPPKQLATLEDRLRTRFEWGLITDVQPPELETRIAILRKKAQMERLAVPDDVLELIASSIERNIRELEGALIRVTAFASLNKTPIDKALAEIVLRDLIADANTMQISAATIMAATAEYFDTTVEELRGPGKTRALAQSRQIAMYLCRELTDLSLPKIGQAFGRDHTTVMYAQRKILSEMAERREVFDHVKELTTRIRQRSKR
The description is as above. Particulars: both partners purified.

As for “NapM C-terminal domain (CTD) (domain or fragment)”, the Kd (commonly the concentration at which binding is half-saturated) in assay [1] was 500 nM.

B1: NapM (Rv0047c), nucleoid-associated protein (natural protein)
chain: MLELAILGLLIESPMHGYELRKRLTGLLGAFRAFSYGSLYPALRRMQADGLIAENAAPAGTPVRRARRVYQLTDKGRRRFGELVADTGPHNYTDDGFGVHLAFFNRTPAEARMRILEGRRRQVEERREGLREAVARASSSFDRYTRQLHQLGLESSEREVKWLNELIAAERAAPNPAEQT
Regarding B1, the Kd with DnaA was determined as 380 nM. This lies in the sub-micromolar range.
